Test results reported in US10240123B2, “Method for preparing induced paraxial mesoderm progenitor (IPAM) cells and their use” (INSERM (INSTITUT NATIONAL DE LA SANTE ET DE LA RECHERCHE …, priority 2011, dated 2019).
“Also recorded” adds a separate entry of the source.

B1: R-spondin2: secreted protein of the R-spondin family that activates the Wnt signaling pathway; recombinant (protein, UniProt Q6UXX9 22-243, looked up)
R-spondin-2: QGNRWRRSKRASYVSNPICKGCLSCSKDNGCSRCQQKLFFFLRREGMRQYGECLHSCPSGYYGHRAPDMNRCARCRIENCDSCFSKDFCTKCKVGFYLHRGRCFDECPDGFAPLEETMECVEGCEVGHWSEWGTCSRNNRTCGFKWGLETRTRQIVKKPVKDTILCPTIAESRRCKMTMRHCPGGKRTPKAKEKRNKKKKRKLIERAQEQHSVFLATDRANQ
B2: Follistatin: recombinant protein BMP inhibitor (protein, UniProt P19883 30-344, looked up)
Follistatin: GNCWLRQAKNGRCQVLYKTELSKEECCSTGRLSTSWTEEDVNDNTLFKWMIFNGGAPNCIPCKETCENVDCGPGKKCRMNKKNKPRCVCAPDCSNITWKGPVCGLDGKTYRNECALLKARCKEQPELEVQYQGRCKKTCRDVFCPGSSTCVVDQTNNAYCVTCNRICPEPASSEQYLCGNDGVTYSSACHLRKATCLLGRSIGLAYEGKCIKAKSCEDIQCTGGKKCLWDFKVGRGRCSLCDELCPDSKSDEPVCASDNATYASECAMKEAACSSGVLLEVKHSGSCNSISEDTEEEEEDEDQDYSFPISSILEW
B3: R-spondin3: secreted protein of the R-spondin family that activates the Wnt signaling pathway; recombinant (protein, UniProt Q9BXY4 22-272, looked up)
R-spondin-3: QNASRGRRQRRMHPNVSQGCQGGCATCSDYNGCLSCKPRLFFALERIGMKQIGVCLSSCPSGYYGTRYPDINKCTKCKADCDTCFNKNFCTKCKSGFYLHLGKCLDNCPEGLEANNHTMECVSIVHCEVSEWNPWSPCTKKGKTCGFKRGTETRVREIIQHPSAKGNLCPPTNETRKCTVQRKKCQKGERGKKGRERKRKKPNKGESKEAIPDSKSLESSKEIPEQRENKQQQKKRKVQDKQKSVSVSTVH
B4: Dkk1: secreted extracellular Wnt antagonist, canonical Wnt inhibitor (protein, UniProt O94907 32-266, looked up)
Dickkopf-related protein 1: TLNSVLNSNAIKNLPPPLGGAAGHPGSAVSAAPGILYPGGNKYQTIDNYQPYPCAEDEECGTDEYCASPTRGGDAGVQICLACRKRRKRCMRHAMCCPGNYCKNGICVSSDQNHFRGEIEETITESFGNDHSTLDGYSRRTTLSSKMYHTKGQEGSVCLRSSDCASGLCCARHFWSKICKPVLKEGQVCTKHRRKGSHGLEIFQRCYCGEGLSCRIQKDHHQASNSSRLHTCQRH
B5: Noggin: recombinant protein known to inhibit BMP4 (protein, UniProt Q13253 28-232, looked up)
Noggin: QHYLHIRPAPSDNLPLVDLIEHPDPIFDPKEKDLNETLLRSLLGGHYDPGFMATSPPEDRPGGGGGAAGGAEDLAELDQLLRQRPSGAMPSEIKGLEFSEGLAQGKKQRLSKKLRRKLQMWLWSQTFCPVLYAWNDLGSRFWPRYVKVGSCFSKRSCSVPEGMVCKPSKSVHLTVLRWRCQRRGGQRCGWIPIQYPIISECKCSC

Columns and labels:
[1] = system: Msgn1RepV mouse ES cells; assay: Msgn1RepV reporter mouse ES cell differentiation, YFP+ (iPAM) cells by flow cytometry; format: cell-based; conditions: for effect on number of YFP+ cells (iPAM induction): 4 days of differentiation
Procedure: Undifferentiated mouse ES cells […] derived) were maintained on gelatin-coated dishes in DMEM supplemented with 15% fetal bovine serum (FBS; from PAA), penicillin, streptomycin, 2 mM L-Glutamine, 0.1 mM non essential amino acids, 1 mM sodium pyruvate, 0.2% β-mercaptoethanol and 1,500 U/mL LIF. ES cells were co-cultured with mytomicin-inactivated MEFs (feeders). Undifferentiated human ES cells were cultured on plates coated with matrigel (BD Biosciences) in mTeSR medium ([…] Technologies). Cultures were maintained in an incubator in 5% CO2 at 37° C. ES cells were trypsinized and plated at various densities in gelatin coated, feeder-free, 24 well plates directly in serum-based (15% FBS) or serum-replacement (15% KSR, Invitrogen) conditions supplemented with factors, and DMSO (Sigma). Recombinant proteins were obtained commercially (R&D) and stock solutions were prepared according to manufacturer's recommendation. The GSK-3ß inhibitor CHIR99021 and the BMP type I receptors inhibitor Dorsomorphin were purchased from Stemgent and prepared according to the manufacturer's recommendations. Fluorescent reporter analysis and image acquisition were done on a Zeiss Axiovert system. Cell cultures were dissociated by trypsinization, analyzed by flow cytometry on a FACScalibur (BD Biosciences) according to YFP expression. Data were further analyzed with MoFlo software (Beckman Coulter) and FlowJo software. In order to optimize the differentiation conditions for paraxial mesoderm progenitors, we developed a manual screening assay, testing candidate growth factors and drugs interfering with various signaling pathways on ES cells. The […] reporter cells were plated at a defined density in 24-well plates coated with gelatin (0.1%). Two basal culture media were selected: a DMEM based medium containing 15% fetal bovine serum (FBS, high serum) and a defined serum-free medium containing 15% KSR (Invitrogen/Gibco). These basal media were supplemented with candidate factors on day 0 of differentiation. Control and experimental conditions were cultured in parallel. Cells were left to differentiate for three to four days with medium changed on day 2 or 3. Cell cultures were analyzed on day 3 and 4 of differentiation visually and by flow cytometry for YFP+ population quantification.

[2] = system: BMP4; assay: BMP4 and PSM marker expression in Msgn1-YFP+ cells (microarray, qRT-PCR); format: cell-based, mouse; conditions: for iPAM maturation, PSM specific marker expression: added to differentiation medium
Procedure: Mouse E9.5 embryo PSMs were microdissected and processed as previously described (Krol et al, 2011), and prepared samples were run on Affymetrix GeneChip arrays. For differentiated cell cultures, iPAMs were sorted by flow-cytometry based on their Msgn1-YFP+ expression, and samples were prepared for microarrays. Experiments were conducted on biological triplicates. Datasets were processed using Affymetrix Microarray Suite (MAS) 5.0. Total RNA was extracted from ES cell cultures using Trizol (Invitrogen) or with the […] plus mini-kit (Qiagen). RT-PCR was performed on 5 ng total RNA using QuantiFast SYBR Green RT-PCR Kit (Qiagen), appropriate primers and run on a LightCycler 480II (Roche). GAPDH was used as the internal control. To counteract this BMP4 activity, we tested the effect of addition of recombinant Noggin (Nog) protein known to inhibit BMP4, to the differentiation medium. […] We further defined both the optimal concentration and timing of Noggin addition. […] To better characterize the impact of Noggin on Msgn1-YFP+ cells, we performed microarrays on the Msgn1-YFP+ induced paraxial mesoderm progenitors (iPAM) population at day 3 and 4 of differentiation (FIG. 11, compare conditions RDN and RD). We screened a set of BMP inhibitors, including recombinant proteins Noggin (Nog), Chordin (Chd), Chordin-like 1 (Chdl1), Follistatin (Fst), Follistatin-like 1 (Fstl1), Dan family protein including Cerberus 1 (Cerberus) and Gremlin 1 (Grem1); at varying concentration range (10-200 ng/mL), and various time-window (day 0-4, day 1-4) and analyzed the impact on BMP4 and the PSM marker Tbx6 expression. Additionally, we tested the chemical compound Dorsomorphin (Compound C), a specific BMP type I receptor inhibitor, at various concentration (0.1-1 μM) and various time-window (day 0-4, day 1-4).

[3] = system: canonical Wnt signaling; assay: BAT-luc luciferase reporter for canonical Wnt signaling in ES cells; format: cell-based, mouse; conditions: Rspo3 10 ng/mL, 1% FBS medium
[4] = system: HUES1 cells; assay: qRT-PCR of paraxial mesoderm progenitor markers in differentiating human ES cells; format: cell-based; conditions: 15% FBS containing medium, 3 to 10 days of culture
Procedure: Comparison of the expression of paraxial mesoderm progenitor markers Brachyury (A), PDGFRa (B), Tbx6 (C), Msgn1 (D) measured by Q RT-PCR in HUES1 undifferentiated or cultured in 15% FBS containing medium with or without Rspo3 for up to 10 days. Relative expression to undifferentiated HUES1 cells is shown (fold induction).
Total RNA was extracted from ES cell cultures using Trizol (Invitrogen) or with the Rnaeasy plus mini-kit (Qiagen). RT-PCR was performed on 5 ng total RNA using QuantiFast SYBR Green RT-PCR Kit (Qiagen), appropriate primers and run on a LightCycler 480II (Roche). GAPDH was used as the internal control.
Next, to confirm that R-spondin also induces paraxial mesoderm progenitors (iPAM) cells from human ES cells differentiation, HUES1 cells were plated as single cells and differentiated in 15% FBS containing medium with or without Rspo3. qRT-PCR time course analysis for paraxial mesoderm progenitor markers expression was performed (FIG. 10).

Row | Molecule | effect on number of YFP+ cells (iPAM induction) ([1]; 15% FBS medium) | iPAM maturation, PSM specific marker expression [2] | other results
1 | Cc1c[nH]c(-c2cnc(NCCNc3ccc(C#N)cn3)nc2-c2ccc(Cl)cc2Cl)n1 [CHIR99021, reference compound] | as efficient as Rspo-3 | – | –
2 | C[S+](C)[O-] [DMSO, Dimethyl sulfoxide, reference compound] | increase of YFP+ cells | – | –
3 | c1cc(-c2cnn3cc(-c4ccc(OCCN5CCCCC5)cc4)cnc23)ccn1 [Dorsomorphin, 6-[4-(2-Piperidin-1-yl-ethoxy)phenyl]-3-pyridin-4-yl-pyrazolo [1,5-a]pyrimidine, reference compound] | – | promoting induced paraxial mesoderm progenitors (iPAM) maturation | –
4 | B1 | significantly increase the number of YFP+ cells | – | –
5 | B2 | – | promoting induced paraxial mesoderm progenitors (iPAM) maturation | –
6 | B3 | significantly increase the number of YFP+ cells | – | induction of YFP+ cells ([1]; 10 ng/mL, both FBS based and KSR based medium, 4 days): up to 70%; YFP+ population of the total population ([1]; day 4 of differentiation, 15% FBS medium, R-spondin3 10 ng/mL): more than 70%; luciferase from BAT-luc canonical Wnt reporter [3]: strongly activated; luciferase from BAT-luc canonical Wnt reporter ([3]; listed as Rspo3): strongly activates the canonical Wnt response; expression of paraxial mesoderm progenitor markers (qRT-PCR) [4]: induction of the paraxial mesoderm progenitor markers, Brachyury, PDGFRa, Tbx6 and Msgn1 is observed; also recorded: Strong activation of Msgn1 and Tbx6
7 | B4 | sharp decrease of YFP+ induction | – | –
8 | B5 | – | upregulation of several PSM specific markers; also recorded: promoting induced paraxial mesoderm progenitors (iPAM) maturation | total number of Msgn1-YFP+ iPAM cells or total cell number in culture ([1]; added to differentiation medium): does not change the total number; BMP4 expression in Msgn1-YFP+ cells ([2]; added to differentiation medium with Rspo3 and DMSO, day 3 and 4): effectively repress BMP4 expression; also recorded: represses BMP4 expression
